Results taken from patent US20230382970A1 (HANMI PHARM, published 2023).
Bridge positions count the residues as written; N and C are the ends. Square brackets hold non-standard residues; d marks the D form. Ends that are not written are not given here. Aib = CC(C)(N)C(=O)O

molecular target: T1, human GIP receptor (human, UniProt P48546 22-466); assay: cell-based or functional assay
T1 sequence (looked up): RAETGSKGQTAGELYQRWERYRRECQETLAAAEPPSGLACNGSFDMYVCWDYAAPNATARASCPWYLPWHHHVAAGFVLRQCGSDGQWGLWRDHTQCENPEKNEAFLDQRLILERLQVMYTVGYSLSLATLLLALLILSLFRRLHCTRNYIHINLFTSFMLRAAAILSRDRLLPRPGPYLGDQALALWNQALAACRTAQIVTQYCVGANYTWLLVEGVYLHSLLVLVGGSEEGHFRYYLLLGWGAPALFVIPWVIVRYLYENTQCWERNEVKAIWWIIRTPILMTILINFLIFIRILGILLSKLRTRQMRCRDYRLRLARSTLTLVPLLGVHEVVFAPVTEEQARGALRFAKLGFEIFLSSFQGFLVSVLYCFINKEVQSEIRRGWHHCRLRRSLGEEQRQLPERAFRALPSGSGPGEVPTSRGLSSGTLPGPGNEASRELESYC

Binder	In vitro activity (%) compared to native-type peptide, vs human GIP (cAMP EC50, human GIP receptor-expressing CHO cells) [%]
Y[Aib]EGTFTSDYSKYLDEIAAKDFVQWLLDHHPSSGQPPPSC (bridge 16-20) [GLP-1/GIP dual agonist of SEQ ID NO: 3]	28.7
Y[Aib]EGTFTSDYSIYLDKQAA[Aib]AFVQWLIAGGPSSGAPPPSC [GLP-1/GIP dual agonist of SEQ ID NO: 19]	13.9
Y[Aib]EGTFTSDYSKYLDERASKDFVQWLLDHHPSSGQPPPSC (bridge 16-20; also: ring type not given here) [GLP-1/GIP dual agonist of SEQ ID NO: 8]	29.2
H[Aib]EGTFTSDYSKYLDKKRQ[Aib]EFVQWLLNGGPSSGAPPPSC [GLP-1/GIP dual agonist of SEQ ID NO: 14]	0.3
Y[Aib]EGTFTSDYSKYLDEKAAKEFVQWLLDQHPSSGQPPPSC (bridge 16-20) [GLP-1/GIP dual agonist of SEQ ID NO: 22]	39.6
Y[Aib]EGTFTSDYSIYLDERACKDFVQWLLDHHPSSGQPPPSYK (bridge 16-20) [GLP-1/GIP dual agonist of SEQ ID NO: 15]	64.4
Y[Aib]EGTFTSDYSKYLDEEAVKLFVQWLLDQHPSSGAPPPSC (bridge 16-20) [GLP-1/GIP dual agonist of SEQ ID NO: 25]	59.4
Y[Aib]EGTFTSDYSIAMDAIAQQDFVNWLLAQRGKKSDWKHNITQC [GLP-1/GIP dual agonist of SEQ ID NO: 27]	55.5
Y[Aib]EGTFTSDYSIAMDAIAQQDFVNWLLAQKGKKNDWKHNITQC [GLP-1/GIP dual agonist of SEQ ID NO: 26]	57.9
Y[Aib]EGTFTSDYSI[Aib]LDKQAA[Aib]EFVNWLL[Aib]GGPSSGAPPPSC [GLP-1/GIP dual agonist of SEQ ID NO: 29]	96
Y[Aib]EGTFTSDYSKYLDEIRAKDFVQWLLDHHPSSGQPPPSC (bridge 16-20) [GLP-1/GIP dual agonist of SEQ ID NO: 2]	28.8
Y[Aib]EGTFTSDYSI[Aib]LDKQAA[Aib]EFVNWLL[Aib]GHPSSGAPPPSC [GLP-1/GIP dual agonist of SEQ ID NO: 30]	63.4
Y[Aib]EGTFTSDYSEYMEKEAVREFIAWLVKGGPSSGAPPPSC (bridge 12-16) [GLP-1/GIP dual agonist of SEQ ID NO: 1]	27.5
Y[Aib]EGTFTSDYSKYLDERAQKDFVQWLLDHHPSSGQPPPSC (bridge 16-20; also: ring type not given here) [GLP-1/GIP dual agonist of SEQ ID NO: 7]	62.3
Y[Aib]EGTFTSDYSI[Aib]LDKIAAKAFVQWLIAGGPSSGAPPPSC [GLP-1/GIP dual agonist of SEQ ID NO: 21]	23.2
Y[Aib]EGTFTSDYSI[Aib]LDKQAA[Aib]AFVQWLIAGGPSSGAPPPSC [GLP-1/GIP dual agonist of SEQ ID NO: 20]	64.2
Y[Aib]EGTFTSDYSIQLDKIAQKAFVQWLIAGGPSSGAPPPSC [GLP-1/GIP dual agonist of SEQ ID NO: 17]	7.7
Y[Aib]EGTFTSDYSKYLDEKAAKDFVQWLLDHHPSSGQPPPSC (bridge 16-20) [GLP-1/GIP dual agonist of SEQ ID NO: 5]	48.2
Y[Aib]EGTFTSDYSIALEKQAQQDFVNWLLAGGPSSGAPPPSC [GLP-1/GIP dual agonist of SEQ ID NO: 28]	146
Y[Aib]EGTFTSDYSKYLDEIAQKDFVQWLLDQHPSSGAPPPSC (bridge 16-20) [GLP-1/GIP dual agonist of SEQ ID NO: 24]	83.9
Y[Aib]EGTFTSDYSIQLDKIAQRAFVQWLIAGGPSSGAPPPSK [GLP-1/GIP dual agonist of SEQ ID NO: 18]	15.9
Y[Aib]EGTFTSDYSI[Aib]LDKIAQRAFVQWLIAGGPSSGAPPPSK [GLP-1/GIP dual agonist of SEQ ID NO: 16]	72.3
Y[Aib]EGTFTSDYSKYLDEQAAKEFVQWLLDQHPSSGAPPPSC (bridge 16-20) [GLP-1/GIP dual agonist of SEQ ID NO: 23]	106

molecular target: human GLP-1 receptor (human, UniProt P43220 24-463); assay: cell-based or functional assay

Binder	In vitro activity (%) compared to native-type peptide, vs human GLP-1 (cAMP EC50, human GLP-1 receptor-expressing CHO cells) [%]
Y[Aib]EGTFTSDYSKYLDEIAAKDFVQWLLDHHPSSGQPPPSC (bridge 16-20) [GLP-1/GIP dual agonist of SEQ ID NO: 3]	6.8
Y[Aib]EGTFTSDYSIYLDKQAA[Aib]AFVQWLIAGGPSSGAPPPSC [GLP-1/GIP dual agonist of SEQ ID NO: 19]	32.8
Y[Aib]EGTFTSDYSKYLDERASKDFVQWLLDHHPSSGQPPPSC (bridge 16-20; also: ring type not given here) [GLP-1/GIP dual agonist of SEQ ID NO: 8]	35.9
H[Aib]EGTFTSDYSKYLDKKRQ[Aib]EFVQWLLNGGPSSGAPPPSC [GLP-1/GIP dual agonist of SEQ ID NO: 14]	160
Y[Aib]EGTFTSDYSKYLDEKAAKEFVQWLLDQHPSSGQPPPSC (bridge 16-20) [GLP-1/GIP dual agonist of SEQ ID NO: 22]	41.1
Y[Aib]EGTFTSDYSRYLDERASKDFVQWLLDHHPSSGQPPPSK (bridge 16-20) [GLP-1/GIP dual agonist of SEQ ID NO: 11]	95
Y[Aib]EGTFTSDYSIYLDERACKDFVQWLLDHHPSSGQPPPSYK (bridge 16-20) [GLP-1/GIP dual agonist of SEQ ID NO: 15]	97.5
Y[Aib]EGTFTSDYSKYLDEEAVKLFVQWLLDQHPSSGAPPPSC (bridge 16-20) [GLP-1/GIP dual agonist of SEQ ID NO: 25]	3.2
Y[Aib]EGTFTSDYSIAMDAIAQQDFVNWLLAQRGKKSDWKHNITQC [GLP-1/GIP dual agonist of SEQ ID NO: 27]	0.2
Y[Aib]EGTFTSDYSIAMDAIAQQDFVNWLLAQKGKKNDWKHNITQC [GLP-1/GIP dual agonist of SEQ ID NO: 26]	0.3
Y[Aib]EGTFTSDYSI[Aib]LDKQAA[Aib]EFVNWLL[Aib]GGPSSGAPPPSC [GLP-1/GIP dual agonist of SEQ ID NO: 29]	0.5
Y[Aib]EGTFTSDYSRYLDERAAKDFVQWLLDHHPSSGQPPPSK (bridge 16-20) [GLP-1/GIP dual agonist of SEQ ID NO: 9]	141
Y[Aib]EGTFTSDYSKYLDEIRAKDFVQWLLDHHPSSGQPPPSC (bridge 16-20) [GLP-1/GIP dual agonist of SEQ ID NO: 2]	3.3
Y[Aib]EGTFTSDYSI[Aib]LDKQAA[Aib]EFVNWLL[Aib]GHPSSGAPPPSC [GLP-1/GIP dual agonist of SEQ ID NO: 30]	1
Y[Aib]EGTFTSDYSEYMEKEAVREFIAWLVRGGPSSGAPPPSK (bridge 12-16) [GLP-1/GIP dual agonist of SEQ ID NO: 12]	110
Y[Aib]EGTFTSDYSEYMEKEAVREFIAWLVKGGPSSGAPPPSC (bridge 12-16) [GLP-1/GIP dual agonist of SEQ ID NO: 1]	53.9
Y[Aib]EGTFTSDYSKYLDERAQKDFVQWLLDHHPSSGQPPPSC (bridge 16-20; also: ring type not given here) [GLP-1/GIP dual agonist of SEQ ID NO: 7]	18.3
Y[Aib]EGTFTSDYSI[Aib]LDKIAAKAFVQWLIAGGPSSGAPPPSC [GLP-1/GIP dual agonist of SEQ ID NO: 21]	19.7
Y[Aib]EGTFTSDYSI[Aib]LDKQAA[Aib]AFVQWLIAGGPSSGAPPPSC [GLP-1/GIP dual agonist of SEQ ID NO: 20]	31.5
Y[Aib]EGTFTSDYSIQLDKIAQKAFVQWLIAGGPSSGAPPPSC [GLP-1/GIP dual agonist of SEQ ID NO: 17]	19.8
Y[Aib]EGTFTSDYSEYMEKEAVREFISWLVRGGPSSGAPPPSK (bridge 12-16) [GLP-1/GIP dual agonist of SEQ ID NO: 13]	116
Y[Aib]EGTFTSDYSKYLDEKAAKDFVQWLLDHHPSSGQPPPSC (bridge 16-20) [GLP-1/GIP dual agonist of SEQ ID NO: 5]	20.2
Y[Aib]EGTFTSDYSRYLDERAQKDFVQWLLDHHPSSGQPPPSK (bridge 16-20) [GLP-1/GIP dual agonist of SEQ ID NO: 10]	108
Y[Aib]EGTFTSDYSIALEKQAQQDFVNWLLAGGPSSGAPPPSC [GLP-1/GIP dual agonist of SEQ ID NO: 28]	6.7
Y[Aib]EGTFTSDYSKYLDEIAQKDFVQWLLDQHPSSGAPPPSC (bridge 16-20) [GLP-1/GIP dual agonist of SEQ ID NO: 24]	7.3
Y[Aib]EGTFTSDYSIQLDKIAQRAFVQWLIAGGPSSGAPPPSK [GLP-1/GIP dual agonist of SEQ ID NO: 18]	43.3
Y[Aib]EGTFTSDYSI[Aib]LDKIAQRAFVQWLIAGGPSSGAPPPSK [GLP-1/GIP dual agonist of SEQ ID NO: 16]	60
Y[Aib]EGTFTSDYSKYLDEQAAKEFVQWLLDQHPSSGAPPPSC (bridge 16-20) [GLP-1/GIP dual agonist of SEQ ID NO: 23]	13.5
